Results published in publication PMC7017353, “Delineating the Molecular Basis of the Calmodulin–bMunc13-2 Interaction by Cross-Linking/Mass Spectrometry—Evidence for a Novel CaM Binding Motif in bMunc13-2” (Cells, 2020).
Where no end group is shown, it is not given here. [ ]: non-standard residue; d: D form. Bpa = N[C@@H](Cc1ccc(C(=O)c2ccccc2)cc1)C(=O)O

Biological target: recombinant CaM (UniProt P0DP23 1-149)
Assay: cross-linking; photoaffinity labelling (PAL)-based competition: CaM (5 µM) with segment-C-Bpa or segment-CS-Bpa (5 µM), competitor peptides 0–250 µM; 50 mM HEPES pH 7.2, 150 mM KCl, 5 mM DTT, 2 h RT, 200 µM Ca2+ or 2 mM EGTA; UV; SDS-PAGE and MALDI-TOF-MS
Settings: both partners purified

CINN[Bpa]KNVLREKRLRQKKLLQELV (source: synthetic peptide) [Segment-CS-Bpa]
binding result: binds
